These results are taken from patent publication US20230183355A1 (UNIVERSITY OF WESTERN ONTARIO, published 2023).

Experiment [1] concerns the target T1, human CD11d/CD18 expressed on JY cells (human, UniProt Q13349 18-1161; P05107 23-769).
T1 construct: whole, on cells
Put plainly: FACS on JY cells expressing human CD11d/CD18; non-linear regression, one-site binding model. The protocol:
(§1) Binding affinity of the exemplified CD11d antibodies of Table 2 were determined, for both human and rat CD11d, by Fluorescence Activated Cell Sorting (FACS) analysis. JY cells expressing human CD11d/CD18 or JY cells transfected with full-length rat CD11d are suspended in FACS buffer with goat IgG (1 mg/ml). The cell solution is added to wells of 96-well round-bottom plates at a density of 4.0×10⁴ cells in 50 μL solution. Each of the exemplified CD11d antibodies of Table 2 (25 μL) or isotype control antibody (25 μL) is added to a respective well at 1:3 dilutions at final concentrations ranging between 4.6 ng/mL to 10 μg/mL. The plates are incubated on ice for 30 minutes, after which 200 μL of FACS buffer is added, plates are centrifuged at 2000 rpm for 3 minutes, and the liquid is discarded. Cells are re-suspended with 50 μL of a phycoerythrin-conjugated antibody (Jackson ImmunoResearch p/n. 709-116-149) at a 1:150 dilution and incubated on ice for 20 minutes. FACS buffer is added (200 μL) to each well and plates are spun at 2000 rpm for 3 minutes. The liquid is discarded, cells are washed with 200 μL FACS buffer, re-suspended in 120 μL of 1% paraformaldehyde in PBS, and transferred to 96-well flat-bottom plates.
(§2) Stained cells are analyzed by flow cytometry with the gate set on the isotype control antibody. The specific percent gated is calculated as [% gated (test antibody)−% gated (isotype control antibody)]. Kd determinations were made based on a non-linear regression, one-site binding model. Following procedures essentially as described above, binding affinities of the exemplified CD11d antibodies of Table 2 to human and rat CD11d were obtained.

Experiment [2] deals with T2, full-length rat CD11d on transfected JY cells (rat, UniProt Q9QYE7 20-1161).
T2 construct: whole, on cells
T2 sequence (looked up): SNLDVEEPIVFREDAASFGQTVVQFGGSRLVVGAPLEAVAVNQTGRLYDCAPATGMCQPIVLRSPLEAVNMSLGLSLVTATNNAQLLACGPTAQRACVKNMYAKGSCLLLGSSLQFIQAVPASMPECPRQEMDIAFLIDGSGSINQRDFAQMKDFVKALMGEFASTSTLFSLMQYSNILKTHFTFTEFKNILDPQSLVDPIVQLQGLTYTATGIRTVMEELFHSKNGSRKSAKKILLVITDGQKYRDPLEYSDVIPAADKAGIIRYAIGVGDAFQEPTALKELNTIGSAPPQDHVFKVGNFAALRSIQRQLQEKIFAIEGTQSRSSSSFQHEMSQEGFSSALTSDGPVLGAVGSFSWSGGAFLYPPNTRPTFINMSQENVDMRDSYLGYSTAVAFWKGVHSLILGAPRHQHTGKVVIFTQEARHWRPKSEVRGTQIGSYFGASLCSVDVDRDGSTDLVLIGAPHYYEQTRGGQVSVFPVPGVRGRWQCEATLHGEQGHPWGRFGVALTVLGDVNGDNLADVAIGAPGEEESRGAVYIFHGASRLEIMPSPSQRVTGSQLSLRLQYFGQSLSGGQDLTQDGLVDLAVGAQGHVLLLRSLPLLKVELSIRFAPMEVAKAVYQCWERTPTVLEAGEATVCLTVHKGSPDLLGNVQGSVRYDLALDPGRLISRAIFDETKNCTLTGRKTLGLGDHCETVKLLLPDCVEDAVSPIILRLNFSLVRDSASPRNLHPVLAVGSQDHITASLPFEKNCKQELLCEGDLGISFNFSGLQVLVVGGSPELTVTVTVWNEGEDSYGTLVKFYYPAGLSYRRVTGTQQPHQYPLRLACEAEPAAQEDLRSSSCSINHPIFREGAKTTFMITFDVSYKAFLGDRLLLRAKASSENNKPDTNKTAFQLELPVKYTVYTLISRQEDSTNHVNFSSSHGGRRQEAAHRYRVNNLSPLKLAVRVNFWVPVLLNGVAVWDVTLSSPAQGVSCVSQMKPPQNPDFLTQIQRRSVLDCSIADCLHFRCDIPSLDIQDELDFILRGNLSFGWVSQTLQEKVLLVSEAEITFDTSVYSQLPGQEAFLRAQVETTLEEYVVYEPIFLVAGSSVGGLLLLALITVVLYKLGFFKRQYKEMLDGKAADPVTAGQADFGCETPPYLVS
As to the kind of experiment: FACS on JY cells transfected with full-length rat CD11d; non-linear regression, one-site binding model. On the procedure:
as §1, §2

T1 sequence (Q13349 18-1161, chain 1 of 2): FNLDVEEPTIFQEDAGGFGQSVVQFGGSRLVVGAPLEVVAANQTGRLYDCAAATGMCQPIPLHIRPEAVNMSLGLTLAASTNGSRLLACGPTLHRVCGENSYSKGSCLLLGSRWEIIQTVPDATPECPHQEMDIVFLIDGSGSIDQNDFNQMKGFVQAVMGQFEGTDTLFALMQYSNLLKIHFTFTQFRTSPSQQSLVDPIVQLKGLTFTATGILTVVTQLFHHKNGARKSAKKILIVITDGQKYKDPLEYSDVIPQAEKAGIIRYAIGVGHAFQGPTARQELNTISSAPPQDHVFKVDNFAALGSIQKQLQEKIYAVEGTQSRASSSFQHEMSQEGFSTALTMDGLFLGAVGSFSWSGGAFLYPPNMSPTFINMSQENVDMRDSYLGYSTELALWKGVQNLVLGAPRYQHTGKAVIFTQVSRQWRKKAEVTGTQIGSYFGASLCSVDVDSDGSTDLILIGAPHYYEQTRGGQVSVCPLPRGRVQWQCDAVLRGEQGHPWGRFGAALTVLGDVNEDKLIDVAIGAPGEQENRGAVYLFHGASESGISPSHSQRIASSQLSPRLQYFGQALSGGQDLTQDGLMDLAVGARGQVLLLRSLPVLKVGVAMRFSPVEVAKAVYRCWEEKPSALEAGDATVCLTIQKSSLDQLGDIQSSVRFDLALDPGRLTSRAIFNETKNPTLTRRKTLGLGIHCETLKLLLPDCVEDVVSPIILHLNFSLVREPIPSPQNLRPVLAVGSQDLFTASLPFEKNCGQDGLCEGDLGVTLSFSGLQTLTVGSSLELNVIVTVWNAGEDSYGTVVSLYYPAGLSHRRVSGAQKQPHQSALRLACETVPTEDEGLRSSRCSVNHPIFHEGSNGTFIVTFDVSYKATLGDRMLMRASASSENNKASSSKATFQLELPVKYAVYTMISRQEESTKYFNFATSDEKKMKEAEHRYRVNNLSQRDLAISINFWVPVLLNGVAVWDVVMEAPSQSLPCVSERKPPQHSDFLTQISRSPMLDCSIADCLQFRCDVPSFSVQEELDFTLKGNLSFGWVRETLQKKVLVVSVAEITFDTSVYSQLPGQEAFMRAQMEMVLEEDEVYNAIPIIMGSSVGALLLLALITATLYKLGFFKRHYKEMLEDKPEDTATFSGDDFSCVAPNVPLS
T1 sequence (P05107 23-769, chain 2 of 2): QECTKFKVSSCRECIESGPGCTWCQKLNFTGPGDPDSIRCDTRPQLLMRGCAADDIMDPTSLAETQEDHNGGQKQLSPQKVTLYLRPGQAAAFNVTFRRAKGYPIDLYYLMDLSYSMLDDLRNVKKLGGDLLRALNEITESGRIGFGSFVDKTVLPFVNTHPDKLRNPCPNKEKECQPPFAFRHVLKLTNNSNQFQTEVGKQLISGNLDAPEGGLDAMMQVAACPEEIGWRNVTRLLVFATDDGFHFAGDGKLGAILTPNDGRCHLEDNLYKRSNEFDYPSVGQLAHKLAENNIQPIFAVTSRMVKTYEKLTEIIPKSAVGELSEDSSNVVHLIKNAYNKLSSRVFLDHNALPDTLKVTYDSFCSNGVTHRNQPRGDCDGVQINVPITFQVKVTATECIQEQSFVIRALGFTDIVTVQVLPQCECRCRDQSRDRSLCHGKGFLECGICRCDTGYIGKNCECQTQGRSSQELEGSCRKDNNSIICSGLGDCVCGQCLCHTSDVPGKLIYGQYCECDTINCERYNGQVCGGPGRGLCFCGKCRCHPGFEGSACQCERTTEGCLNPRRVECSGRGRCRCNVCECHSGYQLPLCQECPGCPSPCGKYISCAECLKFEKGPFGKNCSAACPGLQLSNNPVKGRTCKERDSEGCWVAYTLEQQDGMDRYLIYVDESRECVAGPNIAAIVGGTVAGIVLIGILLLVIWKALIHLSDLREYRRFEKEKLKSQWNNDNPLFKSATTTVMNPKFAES

B1: Exemplified Antibody 1 (antibody, human IgG4 S228P, kappa, F234A L235A, V domains shown)
VH: QVQLVQSGAEVKKPGASVKVSCKASGYTFTDYNMHWVRQAPGQGLEWMGYIYPYNGDTGYNQNFKSRVTMTRDTSTSTVYMELSSLRSEDTAVYYCARGLIYYGYLNVAMDSWGQGTLVTVSS
VL: DIQMTQSPSSLSASVGDRVTITCRASQSIGTRIHWYQQKPGKAPKLLIYFASESISGVPSRFSGSGSGTDFTLTISSLQPEDFATYYCQQSKIWPTTFGGGTKLEIKR
notes: Humanized antibody, full LC (kappa) and HC (IgG4)
As for B1, the results for the Kd in experiment [1] and in experiment [2] were 0.436 nM and 1.45 nM, respectively.

B2: Exemplified Antibody 2 (antibody, human IgG4 S228P, kappa, F234A L235A, V domains shown)
VH: QVQLVQSGAEVKKPGASVKVSCKASGYTFGDYNMHWVRQAPGQGLEWMGYIYPYNGDTGYNQNFKSRVTMTRDTSTSTVYMELSSLRSEDTAVYYCARGLVHYGYLNVAMDSWGQGTLVTVSS
VL: DIQMTQSPSSLSASVGDRVTITCRASRSIGTRIHWYQQKPGKAPKLLIYFASGSISGVPSRFSGSGSGTDFTLTISSLQPEDFATYYCQQSKIFPTTFGGGTKLEIKR
notes: as for B1
As to B2, the equilibrium dissociation constant (Kd) (commonly the equilibrium constant for the complex coming apart) in experiment [1] was found to be 0.303 nM; in experiment [2], 0.133 nM.

B3: Exemplified Antibody 4 (antibody, human IgG4 S228P, kappa, F234A L235A, V domains shown)
VH: QVQLVQSGAEVKKPGASVKVSCKASGYTFYDYNMHWVRQAPGQGLEWMGYIYPYNGDTGYNQNFKSRVTMTRDTSTSTVYMELSSLRSEDTAVYYCARGLIHYGYLNVAMDSWGQGTLVTVSS
VL: DIQMTQSPSSLSASVGDRVTITCRASRSIGTRIHWYQQKPGKAPKLLIYFASGSISGVPSRFSGSGSGTDFTLTISSLQPEDFATYYCQQSKIFPTTFGGGTKLEIKR
notes: as for B1
In the case of B3, the dissociation constant Kd in experiment [1] stood at 0.333 nM; in experiment [2], 0.247 nM.

B4: Exemplified Antibody 3 (antibody, human IgG4 S228P, kappa, F234A L235A, V domains shown)
VH: QVQLVQSGAEVKKPGASVKVSCKASGYTFTDYNMHWVRQAPGQGLEWMGYIYPYSGDTGYNQNFKSRVTMTRDTSTSTVYMELSSLRSEDTAVYYCARGLIYYGYLNVAMDSWGQGTLVTVSS
VL: DIQMTQSPSSLSASVGDRVTITCRASQSIGTRIHWYQQKPGKAPKLLIYFASESISGVPSRFSGSGSGTDFTLTISSLQPEDFATYYCQQSKIGPTTFGGGTKLEIKR
notes: as for B1
As to B4, the figures for the Kd in experiment [1] and in experiment [2] were 0.304 nM and 0.677 nM, respectively.

B5: Exemplified Antibody 5 (antibody, human IgG4 S228P, kappa, F234A L235A, V domains shown)
VH: QVQLVQSGAEVKKPGASVKVSCKASGYTFTDYNMHWVRQAPGQGLEWMGYIYPYSGDTGYNQNFKSRVTMTRDTSTSTVYMELSSLRSEDTAVYYCARGLIYYGYLNVAMDSWGQGTLVTVSS
VL: DIQMTQSPSSLSASVGDRVTITCRASESIGTRIHWYQQKPGKAPKLLIYFASESISGVPSRFSGSGSGTDFTLTISSLQPEDFATYYCQQSKIWPTTFGGGTKLEIKR
notes: as for B1
As to B5, the values for the Kd in experiment [1] and in experiment [2] were 0.344 nM and 1.18 nM, respectively.
